Read-outs that look alike come from different tables or passages of the source. Blank lines part the entries; values can stand above or below the molecule they belong to. Square brackets hold non-standard residues; d marks the D form. Peptide text beside a SMILES is read from it. * marks the point of attachment. X1 = CC(=O)N[C@@H]1[C@@H](O[C@@H]2O[C@H](CO)[C@H](O)[C@H](O)[C@H]2O)[C@@H](O)[C@@H](CO[C@@H]2O[C@H](CO)[C@@H](O[C@@H]3O[C@H](CO)[C@H](O)[C@H](O[C@]4(C(=O)O)C[C@H](O)[C@@H](NC(C)=O)[C@H]([C@H](O)[C@H](O)CO)O4)[C@H]3O)[C@H](O[C@@H]3O[C@@H](C)[C@@H](O)[C@@H](O)[C@@H]3O)[C@H]2NC(C)=O)O[C@@H]1*; sY = N[C@@H](Cc1ccc(OS(=O)(=O)O)cc1)C(=O)O; Mca = COc1ccc2c(CC(=O)*)cc(=O)oc2c1
What was measured:
P-selectin [1] = test: Microarray binding of glycopeptide mimics to selectin-Ig chimeras; design: species or system human and mouse; conditions: selectin-Ig chimeras 5-20 μg/mL, Alexa-488 anti-human IgG
[2] = Temperature- and pH-dependent stability by RP-HPLC; assay type: physicochemical; conditions: pH 5, T = 37°C
P-selectin [3] = conditions: read-out: IC50 against P-selectin; cited from earlier work
E-selectin = conditions: cited from earlier work
L-selectin = conditions: cited from earlier work
[4] = biological target: recombinant human P-selectin Fc chimera (human) (UniProt P16109); test: flow cytometry on cells
[5] = biological target: recombinant mouse P-selectin Fc chimera (mouse) (UniProt Q01102); test: flow cytometry on cells
[6] = biological target: recombinant human P-selectin Fc chimera (human) (UniProt P16109); test: flow cytometry on cells; remark: listed apart in the source
[7] = biological target: recombinant mouse L-selectin Fc chimera (mouse) (UniProt P18337); test: flow cytometry on cells
recombinant mouse L-selectin Fc chimera (mouse), sequence (P18337 39-332, change not shown): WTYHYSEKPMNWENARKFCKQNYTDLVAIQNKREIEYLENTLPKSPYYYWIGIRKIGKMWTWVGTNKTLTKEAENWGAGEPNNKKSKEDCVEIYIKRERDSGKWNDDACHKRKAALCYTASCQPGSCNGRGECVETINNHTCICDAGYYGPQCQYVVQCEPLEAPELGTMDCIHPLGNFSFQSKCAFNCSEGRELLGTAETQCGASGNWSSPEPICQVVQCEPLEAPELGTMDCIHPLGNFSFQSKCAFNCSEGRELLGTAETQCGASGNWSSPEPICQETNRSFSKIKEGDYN

[8] = biological target: recombinant mouse P-selectin Fc chimera (mouse) (UniProt Q01102); test: flow cytometry on cells; remark: listed apart in the source
human P-selectin = human P-selectin (Homo sapiens, UniProt P16109); conditions: cited from earlier work
GSnP-6 = test: SPR

Molecule: COc1ccc2c(CC(=O)NCCCC[C@H](N)C(=O)N[C@@H](CCC(=O)O)C(=O)N[C@@H](Cc3ccc(OS(=O)(=O)O)cc3)C(=O)N[C@@H](CCC(=O)O)C(=O)N[C@@H](Cc3ccc(OS(=O)(=O)O)cc3)C(=O)N[C@@H](CC(C)C)C(=O)N[C@@H](CC(=O)O)C(=O)N[C@@H](Cc3ccc(OS(=O)(=O)O)cc3)C(=O)N[C@@H](CC(=O)O)C(=O)N[C@@H](Cc3ccccc3)C(=O)N[C@@H](CC(C)C)C(=O)N3CCC[C@H]3C(=O)N[C@@H](CCC(=O)O)C(=O)N[C@H](C(=O)N[C@@H](CCC(=O)O)C(=O)N3CCC[C@H]3C(=O)N[C@@H](CC(C)C)C(=O)O)[C@@H](C)O[C@H]3O[C@H](CO[C@@H]4O[C@H](CO)[C@@H](O[C@@H]5O[C@H](CO)[C@H](O)[C@H](O[C@]6(C(=O)O)C[C@H](O)[C@@H](NC(C)=O)[C@H]([C@H](O)[C@H](O)CO)O6)[C@H]5O)[C@H](O[C@@H]5O[C@@H](C)[C@@H](O)[C@@H](O)[C@@H]5O)[C@H]4NC(C)=O)[C@H](O)[C@H](O[C@@H]4O[C@H](CO)[C@H](O)[C@H](O)[C@H]4O)[C@H]3NC(C)=O)cc(=O)oc2c1 [GSP-6] (H-K(Mca)E[sY]E[sY]LD[sY]DFLPET(X1)EPL-OH)
microarray binding to P-selectin (in words) (P-selectin [1]): bound to P-selectin more strongly than to E- or L-selectin
stability at low pH [2]: rapidly degraded

Molecule: O=C(O)Cc1cccc(-c2cc(CCCCCCc3ccc(O[C@H]4O[C@H](CO)[C@@H](O)[C@H](O)[C@@H]4O)c(-c4cccc(CC(=O)O)c4)c3)ccc2O[C@H]2O[C@H](CO)[C@@H](O)[C@H](O)[C@@H]2O)c1 [bimosiamose, reference compound]
IC50 (P-selectin [3]): 70 µM

IC50 [4]: 20 µM
IC50 [5]: 28 µM
IC50 [6]: 14 µM
IC50 [7]: 30 µM
IC50 [8]: 19 µM
Molecule: GSnP-6 (peptide)

Molecule: PSGL-1 (from UniProt Q14242)
Kd (human P-selectin): 0.073 µM

Kd (GSnP-6): 0.022 µM
Molecule: recombinant human P-selectin Fc chimera (from UniProt P16109 42-771) (Fc fusion)

fold lower affinity than P-Sel-Ig (GSnP-6): 25 fold
B1: L-sel-Ig (Biacore assay, species not stated) (Fc fusion)
chain: WTYHYSEKPMNWQRARRFCRDNYTDLVAIQNKAEIEYLEKTLPFSRSYYWIGIRKIGGIWTWVGTNKSLTEEAENWGDGEPNNKKNKEDCVEIYIKRNKDAGKWNDDACHKLKAALCYTASCQPWSCSGHGECVEIINNYTCNCDVGYYGPQCQFVIQCEPLEAPELGTMDCTHPLGNFSFSSQCAFSCSEGTNLTGIEETTCGPFGNWSSPEPTCQVIQCEPLSAPDLGIMNCSHPLASFSFTSACTFICSEGTELIGKKKTICESSGIWSNPSPICQKLDKSFSMIKEGDYN

fold change of Kd against human P-selectin (GSnP-6): 9 fold
B2: recombinant mouse P-selectin Fc chimera (Fc fusion)
chain: WTYNYSTKAYSWNNSRVFCRRHFTDLVAIQNKNEIAHLNDVIPFFNSYYWIGIRKINNKWTWVGTNKTLTEEAENWADNEPNNKKNNQDCVEIYIKSNSAPGKWNDEPCFKRKRALCYTASCQDMSCSNQGECIETIGSYTCSCYPGFYGPECEYVKECGKVNIPQHVLMNCSHPLGEFSFNSQCTFSCAEGYELDGPGELQCLASGIWTNNPPKCDAVQCQSLEAPPHGTMACMHPIAAFAYDSSCKFECQPGYRARGSNTLHCTGSGQWSEPLPTCEAIACEPPEIPIHGSMDCVPSTGTFGYNSSCTFLCAEGFVLKGNDAIQCADSGQWTAPAPFCEALQCPEFPVPSKAQVNCSDPFGTLTYQSVCSFSCDEGSLLVGASVIRCLATGHWNGAPPECQAVSCAPMLSPENGSMTCVQPLGNSTYKSTCQFMCDEGFYLSGPERLDCSPSGHWTGTPPTCEAIKCPGIFAPEQGNLDCSHVHGEFGVGSICHFSCNEDFELLGSENVECTVSGRWSAPPPTCKGITSLPAPAVRCPALTTPGQGTMSCQHHLGSFGPNTTCYFGCKTGFTLRGANSLRCRASGQWTAVTPMCRAVKCSELHMDTAVAMNCSNPWGNFSYGSTCTFQCPEGQSLNGSVRATCREDGHWSDAMPTCQAGTLTIQEA

B3: P-selectin-glycoprotein-ligand-1 (protein, UniProt Q14242 42-412, looked up)
P-selectin glycoprotein …: QATEYEYLDYDFLPETEPPEMLRNSTDTTPLTGPGTPESTTVEPAARRSTGLDAGGAVTELTTELANMGNLSTDSAAMEIQTTQPAATEAQTTQPVPTEAQTTPLAATEAQTTRLTATEAQTTPLAATEAQTTPPAATEAQTTQPTGLEAQTTAPAAMEAQTTAPAAMEAQTTPPAAMEAQTTQTTAMEAQTTAPEATEAQTTQPTATEAQTTPLAAMEALSTEPSATEALSMEPTTKRGLFIPFSVSSVTHKGIPMAASNLSVNYPVGAPDHISVKQCLLAILILALVATIFFVCTVVLAVRLSRKGHMYPVRNYSPTEMVCISSLLPDGGEGPSATANGGLSKAKSPGLTPEPREDREGDDLTLHSFLP
Kd (E-selectin; read-out: Kd of PSGL-1 binding to E-selectin): 2 to 5 µM
Kd (L-selectin; read-out: Kd of PSGL-1 binding to L-selectin): 2 to 5 µM

fold lower affinity than P-Sel-Ig (GSnP-6): 25 fold
B4: E-sel-Ig (Biacore assay, species not stated) (Fc fusion)
chain: WSYNTSTEAMTYDEASAYCQQRYTHLVAIQNKEEIEYLNSILSYSPSYYWIGIRKVNNVWVWVGTQKPLTEEAKNWAPGEPNNRQKDEDCVEIYIKREKDVGMWNDERCSKKKLALCYTAACTNTSCSGHGECVETINNYTCKCDPGFSGLKCEQIVNCTALESPEHGSLVCSHPLGNFSYNSSCSISCDRGYLPSSMETMQCMSSGEWSAPIPACNVVECDAVTNPANGFVECFQNPGSFPWNTTCTFDCEEGFELMGAQSLQCTSSGNWDNEKPTCKAVTCRAVRQPQNGSVRCSHSPAGEFTFKSSCNFTCEEGFMLQGPAQVECTTQGQWTQQIPVCEAFQCTALSNPERGYMNCLPSASGSFRYGSSCEFSCEQGFVLKGSKRLQCGPTGEWDNEKPTCEAVRCDAVHQPPKGLVRCAHSPIGEFTYKSSCAFSCEEGFELHGSTQLECTSQGQWTEEVPSCQVVKCSSLAVPGKINMSCSGEPVFGTVCKFACPEGWTLNGSAARTCGATGHWSGLLPTCEAPTESNIP
